Experimental data as given in the DeepSol protein solubility set.

Assay: soluble on expression in E. coli; label from the status in PepcDB or PDB records

Sequence	soluble on expression in E. coli
MTEMAKGSVTHQQLIALLSQEGANFRVVTHEAVGKCEAVSEIRGTALGQGAKALVCKVKGNGVNQHVLAILAADQQADLSQLASHIGGLRASLASPAEVDELTGCVFGAIPPFSFHPKLKLVADPLLFERFDEIAFNAGMLDKSVILKTADYLRIAQPELVNFRRTA	not soluble
MTENFAQLFEESLKEIETRPGSIIRGTIVAVNKDNVIVDAGLKSESVISIDQFKNAAGEVEVVVGDEIDVALDATDDGFGETILSREKAKRHEAWQVLEKAYEEKETVIGVINGKVKGGFTVEVSDIRAFLPGSLVDVRPVRDTAHLEGKPLEFKVIKLDQKRNNVVVSRRAVIEAEGSAERDELLESLAEGQEVKGIVKNLTDYGAFVDLGGIDGLLHITDMAWKRVKHPSEIVNVGDEIQVKVLKFDRERTRVSLGMKQLGEDPWVAIANRYPEGSKLSGRVTNLTDYGCFVEIQEGVEGLVHVSEMDWTNKNIHPSKVVNLGDTVEVLVLEIDEERRRISLGLKQCIANPWEEFAKNFNKGDKVSGKIKSITDFGIFIGLDGGIDGLVHLSDISWAGGEEAVRDYKKGDEIDAIVLQVDPERERISLGVKQAEDDPFNMYLADKKKGAIVTGKVTEVDAKGATILLAESVEGYLRVSDISVERIEDASTVLKVGDDVEARFMGVDRKNRTISLSIKAKDQADEREAMDNLNQVEETGLSAMAAAFKNAKNLEHHHHHH	soluble
MTEPLFVITDRPISVEDVMKKVMRPEAGAVAVFAGTVREWTNGKRTLFLQYEAYVSMAEKMLAQIGAEIAEKWPGAKTAITHRIGRLEIGDIAVVIAVSSPHRAEAYEANRYAIERIKQIVPIWKKEQWEDGSAWVGDQLETTAYPSGKPEVSEE	soluble
MTEQSAHEKYEFKKKLEGLRDKKGRSTELISLYIPPDKQIFDVTNQLKDEHGQAANIKSKLTRTNVQGAIESLLSRLRYLDKVPENGIVYFTGAVDIGANKTSMESEVIVPPDPITVYKYHCDSSFYLEPLEDMLKDKNTYGLLVLDRREATIGLLVGKRIQPFRNLTSTVPGKQRKGGQSAHRFQQLRLIAIHDFYKRIGDAASEVFMAVDHKDLKGVLIGGPSPTKEEFHAGEFLHHELMKKILGLFDTAYTDESGLSELVNAAGEKLQDLELMGQKNAVRDFFKELIADSGKVAYGESQVRANLEINSVDVLLLSEDLRAERVTTKCSVCGYENKWTRRWKPGEPAPAAGNCPKCGSSLEVTDVTDIVDEFSELADKSNAKVVFVSTDFDEGSQLMNAFGGIAAILRYNTGV	not soluble
MTESFAELFEASQANLAKLKPGSIVTGTVVEVRGDVVVINAGLKSEGIVPIEQFRNDAGEIDVGVGDQVKVALDSIENGFGETVLSREKAKRAMVWDELEEALEKNETITGRISGKVKGGFTVDIKDVRAFLPGSLVDVRPVRDPAYLEGKELEFKLIKLDRKRNNVVVSRRAVVESEHSEEREQLMDKLQEGAILKGVVKNLTDYGAFVDLGGIDGLLHITDMAWKRVRHPSEVVNVGDELDVRVLKFDRERNRVSLGLKQLGEDPWDNIARRYPANSRVFGKVSNVTDYGAFVEIEPGVEGLVHVSEMDWTNKNVNPSKVVQVGDEVEVMVLDVDEERRRISLGMKQVAANPWETFAATHKKNDKVSGQIKSITDFGIFIGLDGGIDGLVHLSDISWNTTGEDVVRNYKKGDTLEAVVLAVDPERERISLGVKQLEQDPFGQYMASNPKGSKVEGVVREVDAKGATIDLADGIEGYVAARDIANERVDDATQHLKVGDKIEAKFVGMDRKGRTLQLSIKAKDDAEMREVLEEYQSASGGTTQLGALLRAQLNSNKSELEHHHHHH	soluble
MTESNGNSEITTTEGNTGPVVESSLDPLAGRPEQSEDDIAKASDVEEYLRDVIDPELGINVVDLGLVYDIWMEGSIHAHVNMTLTSPACPLTDVIEDQAESAVVGNKVAETLTIHWVWMPPWGPHMITEDGREQLRALGFSV	not soluble
MTETKEERVHQVFEKIYKRYDVMNSVISFQRHKAWRKDTMKRMNVQEGQSALDVCCGTADWAIALGKAVGPTGHVEGLDFSENMLSIGKKKIADERLDHVFLRHGNAMELPYADDTFDFVTIGFGLRNVPDYMQVLREMARVTKPGGKVVCLETSQPTIPVFKQLYFFYFRHVMPLFGKMFAKSYDEYSWLQESTLSFPGRDRLAQMFKEVGLTDVQVKPYSGGAAAMHLGVKESYDEESRNVTCLEHHHHHH	not soluble
MTEVIGIKFEENGAVEYVVPDKNYTKGDFVVVLEKKDKRLAQVVMENTVFPEVSLPVDLNRVEGLASKRDFARYDENLLKAEQSMGVVADLIAQNQLDMKVVDIVFPLNSSYVLISFVAEKRVDFRQLLEDLAAYFKTRIELRQISSREESKIYGGLGPCGRALCCSSFLGEFPPVSIKMAKNQSLSLNSGKMNGVCGRLMCCLSYEDDFYRDSKASYPDLGEEIETKEGRGQVIAIDVIAGTVKVMFEKGGAPLTYGVEEVQLNGKAAAALEHHHHHH	soluble
MTEYGGGEVYLLDLDSVVDGSALRMISSGGLRGRVLIHSALVDYLYSEAKRGRSAGYAGLAELSRLMDAGVGDVEIVVVEDDARVQPRDEGELKSVLRRYALRVGATLVTSDPVQARAARALGVSVLFTGRSRTGRIRIEEFFDGRTMSVHLKEGVPPLAKVGKPGSWMFVSLSDKPLTRAEIEEIAREIIEASALEEEGFIEIDRSGSTIVQLKDYRIVITRPPLSDGWEVTAVKPVAKLRLEDYSLPEKLYNRLLERAEGILIAGAPGMGKTTFAQALATFYAEQGKVVKTIESPRDMRLPPNVTQYSKNYADLGELHDILLLSRPDYTVYDELRSDEDFQLYVDLRLAGIGMIGVVHATTPIDAVQRFLRRVELGMIPSIIDTVIFIDSGEVSKVYELSITVKLPTGLREAELSRPVVEVRDFITGELEYEIYTFGEQTMVVPVRERRGRGEAAILGAIRKLLPDAEVEVRDETLIVRLPPRSSRVTARRLKRAKKLAEKHGYDIRFMPL	soluble
MTFLFDCLILLNILIATCQAIGRTQSTAIEGVLLCEDGPAKGVLIKLYDHDTVSPDELMDSAKTDADGHFRLSGTADEISGIEPKINIYHDCDDGILPCQRRITIFVPSKYVSNTKQPSETFNLGRLQLAGKYAGESRDCLH	soluble
MTGNEHSAIETYECDVLVAGSGASGMSAAITARYRGLDVLIVEKEPRFGGTTARSGGWLWIPGTSLAKAYGIEETPEQARTYLRHEAGNNFDGARIDAFLSAGPEAVDFFTTRTALRFDMPLVFPDYHAEAPGGAQGGRSMVTRPFDGRELGEQIRTLGMPLPELTVFGMMLGSGKEIIHFMRVTKSLTSAVYVAKRLSRHLMDVLHYGRGMTLTNGNALAGRLAKSALDLKIPMWLSSPVRELTVENGAVTGAIVSREGRKVRVRARQGVVLACGGFPHDVERRKKMFPHAPTGNEHFSPGPIGNTGDGLRLAESAGGHVEDRLPNAAAWVPVSLTTRKDGSKGVMPHFIDRAKPGVIAVMRDGRRFANEGNSYHDFVQAMVKAAKPGEEIAAYLVCDHKTLRKYGLGCVPPFPMPLGHHLSTGYLMRGDTLEALAAKAGIDATAFAETVRQFNTTAPLGHDAAFGKGSKAYNRYQGDALHGPNPCVAPIENGPFYAIKMVIGDLGTYAGIITDENARALDAEGRVIPGLYAAGNDMASIMGGNYPGAGITLGPALTFGYIAGRHLADSAAKRNAALEHHHHHH	not soluble
MTGPVTRADPTPGLRTGRRPGNPDTRSRILAAARKLFAQNGFDKTSVRSVATGAGVDSALIHHYFGTKRELFLASVDIPVDPTQVIAPVLDIPTGEVGSHLARAVFSVWESPHKPAVVAAFRSAMAGNEPNLIRTFLLEVVLRDLGPRVDEPPGTGMLRMQLVASQMAGVLVTRYILEFEPLASLPVDDLVAIVGPTLQRYLTGALP	not soluble
MTGTLLYTKNSALDRSEESGDLSPAKEFSIGPGFLKYVLRVRNEIAAAEYDMSVPTGFEADANCDYCFEQDTCMVVSGRLDQESKAGQLGEPLPEPERAYFERLYRAIEEERREVHAEYRKLWEQSAAERADDDRALVDLDPLGREPLDGGRWALSARRTSDAVSKIREGDRVLASDGHPTQGTAELATVRHLDDEIVVVADEPFELRRIDVYPSELGVDRQLTALHDAVLRGDPDRKDVLFGRREPSFVGDHRPIIDNNESQNEAVNRALAAEDFALIHGPPGTGKTYTLAQTVQALVARGDRVLLSAFTNRAVDNAIEALEAQGFTDVLRWGSESGVRDDMQSYRFDRTGDPRERAAALRDAQVVAATTAACGSRALKQQQFDVAVIDEAGQLTEPGTFLATNRADRFVLVGDHEQLPPVVRAENDLQTSLFEQLIDDYPDAAVMLDRQYRMSQRIQYFASREFYDGQLRPANAEVASQRLADLDGVDVSTLPSALRDAVSFVDPGGSADGNTNPTEADRVADIVSAYLDAGVDPDDIGVIAPFRAQVAELSRRIDEVTVDTVDRFQGSSKEVIIVSFVATGELSSPIFEDYRRVNVALTRAKKALVLVGDATALRSVPFYERMLEWAGLEHHHHHH	not soluble
MTHNIHDNISQWMKSNEETPIVMSSRIRLARNLENHVHPLMYATENDGFRVINEVQDALPNFELMRLDQMDQQSKMKMVAKHLISPELIKQPAAAVLVNDDESLSVMINEEDHIRIQAMGTDTTLQALYNQASSIDDELDRSLDISYDEQLGYLTTCPTNIGTGMRASVMLHLPGLSIMKRMTRIAQTINRFGYTIRGIYGEGSQVYGHTYQVSNQLTLGKSELEIIETLTEVVNQIIHEEKQIRQKLDTYNQLETQDRVFRSLGILQNCRMITMEEASYRLSEVKLGIDLNYIELQNFKFNELMVAIQSPFLLDEEDDKSVKEKRADILREHIK	not soluble
MTHSHRRHDISDRIWSLLEGHLPGREGAWGGVATDNRQFINAVFWIIRTGAPWRDLPPDYGGWSNTHRRFIRWRDKGIWEKLLEILIDDPDYEWLIMDASHCKVHPHASGARGGNQDMNRTKGGSTPRYIWPWMRMVCRSESLLHKVPLLIARRLAA	not soluble
MTIGQVNGRARIKSECGKDQKCMPLEDKWLLVPAFLKVRGLVKQHLVSFDHFVQEEIRSIMLSNQKITSDANPNFYLKYLDIRIGKPSSEEGLNMTHDKITPQECRLRDMTYSAPISVDIEYTRGNQRVFKKDLIIGRMPIMLRSSKCILRDLAEEELARVQECPYDPGGYFVVKGSEKVILIQEQLSKNRIMVGRNSSKELQCEVLSSTSERKSKTYVTMKKGKYSVRHNQLTDDVPVSIIFKAMGVESDFDIVSTIGHEEKYVSAFAQTLEESINAGVYTQQQALAYVTSKVKARKFTPFGSLPGTSVSVLTPPKEHEAVDFLSNSMITHIACPDGNFKMKAIYLGLMTRRLIQTELGENGLDDRDFYGNKRLELAGSLLSLLFEDVFKRFNSELKRIADNALMKTMAAPLDIVKHMRQDMITNTIVNAMSTGNWIIKRFRMERLGVTQVLSRLSYISALGMMTRINSTFEKTRKVSGPRSLQPSQWGMLCPSDTPEGEACGLVKNLALISHITTDSDEKPVLRLLLNSGVEDLHNVHFSHVNKPENTLIFLNGVLIGTAVDPERVVKAVRDLRRSGLLSEFVSVSRSLTNRSVFISSDGGRLCRPYIIVKNGTPMLTQAHVQELKEGKMIFEDFVDDGIVEYLDVNEMNDALIAVYGREIGPETTHLEIEPFTLLGVCAGLIPYPHHNQSPRNTYQCAMGKQAMGTIAYNQQKRIDSIMYLLCYPQRPLVKSKTIELTNFEKLPAGANGIIAVMSYSGYDIEDALVLNKASLDRGYGRCLVYKHVKGTAKKYPNQTFDRLLGPALDPNTRKPIFKHKNLDQEGIVFAGARIMPKQTIINKHMPVVSGESGPGASASANTIGIAGRQVDYKDVSITYKTPTPSYAERVLLTYNEDEAHLFKVLLRQTRRPELGDKFSSRHGQKGVCGLIAQQEDMPFNDLGMVPDMIMNPHGYPSRMTVGKLMELLSGKAGVVNGTYHYGTAFGGDQVKDVCEELAACGYNYMGKDMLTSGITGQPLSAYIYFGPIYYQKLKHMVLDKMHARARGPRAALTRQPTEGRSREGGLRLGEMERDCLIAYGASMLLIERLMVSSDEFKVDVCTGCGVIGSKGWCQKCRSSKSMANIKIPYACKLLFQELQSMNIVPRLDLARYTE	not soluble
